Source: the supplement of paper PMC5998384

Columns and labels:
HeLa Kyoto [1] = assay: solubility change mitosis vs G1/S (difference of NP-40 vs SDS log2 ratios) (log2 ratio difference); higher = more soluble in mitosis
HeLa Kyoto [2] = assay: solubility in G1/S (NP-40 vs SDS abundance) (log2 ratio); higher = more soluble; details: cell cycle stage: G1/S
HeLa Kyoto [3] = assay: melting temperature (median over replicates), in situ; higher = more thermally stable
HeLa Kyoto [4] = assay: thermal stability score vs G1/S (z-score of summed log2 fold changes over temperatures); higher = more thermally stable than in G1/S
[5] = cell cycle stage: early G1 (4.5 h after nocodazole release)
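Throughout, for melting temperature (median over replicates), in situ: HeLa Kyoto cells synchronized by double thymidine or nocodazole block, proteins quantified by TMT10plex mass spectrometry, three independent biological replicates.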
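Throughout, for solubility change mitosis vs G1/S (difference of NP-40 vs SDS log2 ratios): synchronized HeLa Kyoto cells (double thymidine block for G1/S, nocodazole release for mitosis), protein amounts in NP-40 versus SDS lysates quantified by mass spectrometry, three biological replicates.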
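Throughout, for solubility in G1/S (NP-40 vs SDS abundance): HeLa Kyoto cells arrested at G1/S by double thymidine block, proteins quantified by TMT10plex mass spectrometry in mild NP-40 versus SDS extracts, three biological replicates.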
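Throughout, for thermal stability score vs G1/S (z-score of summed log2 fold changes over temperatures): synchronized HeLa Kyoto cells, proteins quantified by TMT10plex mass spectrometry, three biological replicates, mitosis taken 0.5 h after nocodazole release, G1/S directly after double thymidine block.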

Sequence	solubility change mitosis (log2) (HeLa Kyoto [1])	solubility in G1/S (log2) (HeLa Kyoto [2])	melting temperature (HeLa Kyoto [3]; cell cycle stage: G1/S)	melting temperature (HeLa Kyoto [3]; cell cycle stage: mitosis)	thermal stability score (HeLa Kyoto [4]; [5])	thermal stability score (HeLa Kyoto [4]; cell cycle stage: mitosis)
MAAAAKPNNLSLVVHGPGDLRLENYPIPEPGPNEVLLRMHSVGICGSDVHYWEYGRIGNFIVKKPMVLGHEASGTVEKVGSSVKHLKPGDRVAIEPGAPRENDEFCKMGRYNLSPSIFFCATPPDDGNLCRFYKHNAAFCYKLPDNVTFEEGALIEPLSVGIHACRRGGVTLGHKVLVCGAGPIGMVTLLVAKAMGAAQVVVTDLSATRLSKAKEIGADLVLQISKESPQEIARKVEGQLGCKPEVTIECTGAEASIQAGIYATRSGGNLVLVGLGSEMTTVPLLHAAIREVDIKGVFRYCNTWPVAISMLASKSVNVKPLVTHRFPLEKALEAFETFKKGLGLKIMLKCDPSDQNP [SORD]	-0.109	0.184	58.1 °C	57 °C	-2.25	-1.12
MAAAALGSSSGSASPAVAELCQNTPETFLEASKLLLTYADNILRNPNDEKYRSIRIGNTAFSTRLLPVRGAVECLFEMGFEEGETHLIFPKKASVEQLQKIRDLIAIERSSRLDGSNKSHKVKSSQQPAASTQLPTTPSSNPSGLNQHTRNRQGQSSDPPSASTVAADSAILEVLQSNIQHVLVYENPALQEKALACIPVQELKRKSQEKLSRARKLDKGINISDEDFLLLELLHWFKEEFFHWVNNVLCSKCGGQTRSRDRSLLPSDDELKWGAKEVEDHYCDACQFSNRFPRYNNPEKLLETRCGRCGEWANCFTLCCRAVGFEARYVWDYTDHVWTEVYSPSQQRWLHCDACEDVCDKPLLYEIGWGKKLSYVIAFSKDEVVDVTWRYSCKHEEVIARRTKVKEALLRDTINGLNKQRQLFLSENRRKELLQRIIVELVEFISPKTPKPGELGGRISGSVAWRVARGEMGLQRKETLFIPCENEKISKQLHLCYNIVKDRYVRVSNNNQTISGWENGVWKMESIFRKVETDWHMVYLARKEGSSFAYISWKFECGSVGLKVDSISIRTSSQTFQTGTVEWKLRSDTAQVELTGDNSLHSYADFSGATEVILEAELSRGDGDVAWQHTQLFRQSLNDHEENCLEIIIKFSDL [NGLY1]	-0.0564	-0.124	57.5 °C	50.3 °C	-0.157	-0.401
MAAAAMAAAAGGGAGAARSLSRFRGCLAGALLGDCVGSFYEAHDTVDLTSVLRHVQSLEPDPGTPGSERTEALYYTDDTAMARALVQSLLAKEAFDEVDMAHRFAQEYKKDPDRGYGAGVVTVFKKLLNPKCRDVFEPARAQFNGKGSYGNGGAMRVAGISLAYSSVQDVQKFARLSAQLTHASSLGYNGAILQALAVHLALQGESSSEHFLKQLLGHMEDLEGDAQSVLDARELGMEERPYSSRLKKIGELLDQASVTREEVVSELGNGIAAFESVPTAIYCFLRCMEPDPEIPSAFNSLQRTLIYSISLGGDTDTIATMAGAIAGAYYGMDQVPESWQQSCEGYEETDILAQSLHRVFQKS [ADPRHL2]	-0.105	0.408	53.3 °C	52.5 °C	0.365	-0.404
MAAAAPVAADDDERRRRPGAALEDSRSQEGANGEAESGELSRLRAELAGALAEMETMKAVAEVSESTKAEAVAAVQRQCQEEVASLQAILKDSISSYEAQITALKQERQQQQQDCEEKERELGRLKQLLSRAYPLDSLEKQMEKAHEDSEKLREIVLPMEKEIEELKAKLLRAEELIQEIQRRPRHAPSLHGSTELLPLSRDPSPPLEPLEELSGDGGPAAEAFAHNCDDSASISSFSLGGGVGSSSSLPQSRQGLSPEQEETASLVSTGTLVPEGIYLPPPGYQLVPDTQWEQLQTEGRQLQKDLESVSRERDELQEGLRRSNEDCAKQMQVLLAQVQNSEQLLRTLQGTVSQAQERVQLQMAELVTTHKCLHHEVKRLNEENQGLRAEQLPSSAPQGSQQEQGEEESLPSSVPELQQLLCCTRQEARARLQAQEHGAERLRIEIVTLREALEEETVARASLEGQLRVQREETEVLEASLCSLRTEMERVQQEQSKAQLPDLLSEQRAKVLRLQAELETSEQVQRDFVRLSQALQVRLERIRQAETLEQVRSIMDEAPLTDVRDIKDT [RABEP2]	0.304	0.504	49 °C	50.6 °C	-0.553	0.297
MAAADAEAVPARGEPQQDCCVKTELLGEETPMAADEGSAEKQAGEAHMAADGETNGSCENSDASSHANAAKHTQDSARVNPQDGTNTLTRIAENGVSERDSEAAKQNHVTADDFVQTSVIGSNGYILNKPALQAQPLRTTSTLASSLPGHAAKTLPGGAGKGRTPSAFPQTPAAPPATLGEGSADTEDRKLPAPGADVKVHRARKTMPKSVVGLHAASKDPREVREARDHKEPKEEINKNISDFGRQQLLPPFPSLHQSLPQNQCYMATTKSQTACLPFVLAAAVSRKKKRRMGTYSLVPKKKTKVLKQRTVIEMFKSITHSTVGSKGEKDLGASSLHVNGESLEMDSDEDDSEELEEDDGHGAEQAAAFPTEDSRTSKESMSEADRAQKMDGESEEEQESVDTGEEEEGGDESDLSSESSIKKKFLKRKGKTDSPWIKPARKRRRRSRKKPSGALGSESYKSSAGSAEQTAPGDSTGYMEVSLDSLDLRVKGILSSQAEGLANGPDVLETDGLQEVPLCSCRMETPKSREITTLANNQCMATESVDHELGRCTNSVVKYELMRPSNKAPLLVLCEDHRGRMVKHQCCPGCGYFCTAGNFMECQPESSISHRFHKDCASRVNNASYCPHCGEESSKAKEVTIAKADTTSTVTPVPGQEKGSALEGRADTTTGSAAGPPLSEDDKLQGAASHVPEGFDPTGPAGLGRPTPGLSQGPGKETLESALIALDSEKPKKLRFHPKQLYFSARQGELQKVLLMLVDGIDPNFKMEHQNKRSPLHAAAEAGHVDICHMLVQAGANIDTCSEDQRTPLMEAAENNHLEAVKYLIKAGALVDPKDAEGSTCLHLAAKKGHYEVVQYLLSNGQMDVNCQDDGGWTPMIWATEYKHVDLVKLLLSKGSDINIRDNEENICLHWAAFSGCVDIAEILLAAKCDLHAVNIHGDSPLHIAARENRYDCVVLFLSRDSDVTLKNKEGETPLQCASLNSQVWSALQMSKALQDSAPDRPSPVERIVSRDIARGYERIPIPCVNAVDSEPCPSNYKYVSQNCVTSPMNIDRNITHLQYCVCIDDCSSSNCMCGQLSMRCWYDKDGRLLPEFNMAEPPLIFECNHACSCWRNCRNRVVQNGLRARLQLYRTRDMGWGVRSLQDIPPGTFVCEYVGELISDSEADVREEDSYLFDLDNKDGEVYCIDARFYGNVSRFINHHCEPNLVPVRVFMAHQDLRFPRIAFFSTRLIEAGEQLGFDYGERFWDIKGKLFSCRCGSPKCRHSSAALAQRQASAAQEAQEDGLPDTSSAAAADPL [EHMT1]	0.332	-0.58	50.2 °C	–	1.22	2.18
MAAAGAAVARSPGIGAGPALRARRSPPPRAARLPRLLVLLAAAAVGPGAGGAARLYRAGEDAVWVLDSGSVRGATANSSAAWLVQFYSSWCGHCIGYAPTWRALAGDVRDWASAIRVAALDCMEEKNQAVCHDYDIHFYPTFRYFKAFTKEFTTGENFKGPDRELRTVRQTMIDFLQNHTEGSRPPACPRLDPIQPSDVLSLLDNRGSHYVAIVFESNSSYLGREVILDLIPYESIVVTRALDGDKAFLEKLGVSSVPSCYLIYPNGSHGLINVVKPLRAFFSSYLKSLPDVRKKSLPLPEKPHKEENSEIVVWREFDKSKLYTVDLESGLHYLLRVELAAHKSLAGAELKTLKDFVTVLAKLFPGRPPVKKLLEMLQEWLASLPLDRIPYNAVLDLVNNKMRISGIFLTNHIKWVGCQGSRSELRGYPCSLWKLFHTLTVEASTHPDALVGTGFEDDPQAVLQTMRRYVHTFFGCKECGEHFEEMAKESMDSVKTPDQAILWLWKKHNMVNGRLAGHLSEDPRFPKLQWPTPDLCPACHEEIKGLASWDEGHVLTFLKQHYGRDNLLDTYSADQGDSSEGGTLARGEEEEKRLTPPEVSHGDRDTQSVRPPGALGPRPALPESLHHSLDGKLQSLDGPGAHKEVGGAAPFLGVDFSSLDMSLCVVLYVASSLFLMVMYFFFRVRSRRWKVKHHHPAV [QSOX2]	0.252	0.207	54.7 °C	54.9 °C	-2.12	-0.982
MAAAGGAEGRRAALEAAAAAAPERGGGSCVLCCGDLEATALGRCDHPVCYRCSTKMRVLCEQRYCAVCREELRQVVFGKKLPAFATIPIHQLQHEKKYDIYFADGKVYALYRQLLQHECPRCPELPPFSLFGDLEQHMRRQHELFCCRLCLQHLQIFTYERKWYSRKDLARHRMQGDPDDTSHRGHPLCKFCDERYLDNDELLKHLRRDHYFCHFCDSDGAQDYYSDYAYLREHFREKHFLCEEGRCSTEQFTHAFRTEIDLKAHRTACHSRSRAEARQNRHIDLQFSYAPRHSRRNEGVVGGEDYEEVDRYSRQGRVARAGTRGAQQSRRGSWRYKREEEDREVAAAVRASVAAQQQEEARRSEDQEEGGRPKKEEAAARGPEDPRGPRRSPRTQGEGPGPKETSTNGPVSQEAFSVTGPAAPGCVGVPGALPPPSPKLKDEDFPSLSASTSSSCSTAATPGPVGLALPYAIPARGRSAFQEEDFPALVSSVPKPGTAPTSLVSAWNSSSSSKKVAQPPLSAQATGSGQPTRKAGKGSRGGRKGGPPFTQEEEEDGGPALQELLSTRPTGSVSSTLGLASIQPSKVGKKKKVGSEKPGTTLPQPPPATCPPGALQAPEAPASRAEGPVAVVVNGHTEGPAPARSAPKEPPGLPRPLGSFPCPTPQEDFPALGGPCPPRMPPPPGFSAVVLLKGTPPPPPPGLVPPISKPPPGFSGLLPSPHPACVPSPATTTTTKAPRLLPAPRAYLVPENFRERNLQLIQSIRDFLQSDEARFSEFKSHSGEFRQGLISAAQYYKSCRDLLGENFQKVFNELLVLLPDTAKQQELLSAHTDFCNREKPLSTKSKKNKKSAWQATTQQAGLDCRVCPTCQQVLAHGDASSHQALHAARDDDFPSLQAIARIIT [ZNF598]	0.108	-0.223	51.6 °C	51.1 °C	-1.86	-0.526
MAAAGLVAVAAAAEYSGTVASGGNLPGVHCGPSSGAGPGFGPGSWSRSLDRALEEAAVTGVLSLSGRKLREFPRGAANHDLTDTTRADLSRNRLSEIPIEACHFVSLENLNLYQNCIRYIPEAILNLQALTFLNISRNQLSTLPVHLCNLPLKVLIASNNKLVSLPEEIGHLRHLMELDVSCNEIQTIPSQIGNLEALRDLNVRRNHLVHLPEELAELPLIRLDFSCNKITTIPVCYRNLRHLQTITLDNNPLQSPPAQICIKGKVHIFKYLNIQACKIAPDLPDYDRRPLGFGSCHEELYSSRPYGALDSGFNSVDSGDKRWSGNEPTDEFSDLPLRVAEITKEQRLRRESQYQENRGSLVVTNGGVEHDLDQIDYIDSCTAEEEEAEVRQPKGPDPDSLSSQFMAYIEQRRISHEGSPVKPVAIREFQKTEDMRRYLHQNRVPAEPSSLLSLSASHNQLSHTDLELHQRREQLVERTRREAQLAALQYEEEKIRTKQIQRDAVLDFVKQKASQSPQKQHPLLDGVDGECPFPSRRSQHTDDSALCMSLSGLNQVGCAATLPHSSAFTPLKSDDRPNALLSSPATETVHHSPAYSFPAAIQRNQPQRPESFLFRAGVRAETNKGHASPLPPSAAPTTDSTDSITGQNSRQREEELELIDQLRKHIEYRLKVSLPCDLGAALTDGVVLCHLANHVRPRSVPSIHVPSPAVPKLTMAKCRRNVENFLEACRKIGVPQEQLCLPLHILEEKGLSQVAVTVQALLELAPPKQQQHQLSAV [LRCH3]	-0.0597	0.108	46.9 °C	48.8 °C	0.000114	1.36
